Source: patent publication US20250206820A1 (NGM BIOPHARMACEUTICALS, published 2025)
Read-outs that look alike come from different tables or passages of the source.

Legend:
[1] = biological target: T1, ILT3 on target cells (MOLM13, OCI-AML-2, NALM-1, THP-1, MM1S, H929, U226B1 and other lines) (human, UniProt Q8NHJ6 22-448); assay: cell-based or functional assay
[2] = biological target: T1, ILT3 on target cells (MOLM13, …); assay: cell-based or functional assay; remark: listed apart in the source
[3] = biological target: T1, ILT3 on target cells (MOLM13, …); assay: cell-based or functional assay; remark: listed apart in the source
[4] = biological target: T1, ILT3 on target cells (MOLM13, …); assay: cell-based or functional assay; remark: listed apart in the source
[5] = biological target: T1, ILT3 on target cells (MOLM13, …); assay: cell-based or functional assay; remark: listed apart in the source
[6] = biological target: T1, ILT3 on target cells (MOLM13, …); assay: cell-based or functional assay; remark: listed apart in the source
[7] = biological target: T2, human ILT3 (as used in the affinity measurements) (human, UniProt Q8NHJ6 22-259, limits assumed); assay: column 'ILT3 Affinity (nM)'; method and format not stated
T2 construct: also called immunoglobulin-like transcript 3

[8] = biological target: T2, human ILT3 (as used in the affinity …); assay: comparison of the affinity of Hz45G10 for human ILT3 with that of the CD3 scFv for CD3
[9] = biological target: T3, CD3 (as used in the affinity measurements) (human, UniProt P07766 23-126); assay: SPR
T3 construct: the description gives human CD3 as UniProtKB P07766; also called human CD3
T3 sequence (P07766 23-126): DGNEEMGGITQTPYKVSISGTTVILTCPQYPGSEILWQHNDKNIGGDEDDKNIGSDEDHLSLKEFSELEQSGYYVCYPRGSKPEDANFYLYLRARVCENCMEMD

B1: ABX1446, ILT3xCD3 bispecific antibody, format F0 (bispecific antibody, human IgG1, kappa, L234A L235A)
chain: EVQLLESGGGLVQPGGSLKLSCAASGFTFNTYAMNWVRQAPGKCLEWVARIRSKYNNYATYYADSVKDRFTISRDDSKNTAYLQMNNLKTEDTAVYYCVRHGNFGNSYVSWFAYWGQGTLVTVSSGGGGSGGGGSGGGGSELVVTQEPSLTVSPGGTVTLTCRSSTGAVTTSNYANWVQQKPGQAPRGLIGGTNKRAPGTPARFSGSLLGGKAALTLSGVQPEDEAEYYCALWYSNLWVFGCGTKLTVLGGGGSDKTHTCPPCPAPEAAGGPSVFLFPPKPKDTLMISRTPEVTCVVVDVSHEDPEVKFNWYVDGVEVHNAKTKPREEQYNSTYRVVSVLTVLHQDWLNGKEYKCKVSNKALPAPIEKTISKAKGQPREPQVYTLPPSREEMTKNQVSLSCAVKGFYPSDIAVEWESNGQPENNYKTTPPVLDSDGSFFLVSKLTVDKSRWQQGNVFSCSVMHEALHNHYTQKSLSLSPGK
heavy: EVQLVESGGGLVQPGGSLRLSCAASGFTFSDYGMHWVRQAPGKGLEWVAYIFSGSSTIYYADTVKGRFTISRDNAKNSLYLQMNSLRAEDTAVYYCARADGRGAMDYWGQGTLVTVSSASTKGPSVFPLAPSSKSTSGGTAALGCLVKDYFPEPVTVSWNSGALTSGVHTFPAVLQSSGLYSLSSVVTVPSSSLGTQTYICNVNHKPSNTKVDKKVEPKSCDKTHTCPPCPAPEAAGGPSVFLFPPKPKDTLMISRTPEVTCVVVDVSHEDPEVKFNWYVDGVEVHNAKTKPREEQYNSTYRVVSVLTVLHQDWLNGKEYKCKVSNKALPAPIEKTISKAKGQPREPQVYTLPPSREEMTKNQVSLWCLVKGFYPSDIAVEWESNGQPENNYKTTPPVLDSDGSFFLYSKLTVDKSRWQQGNVFSCSVMHEALHNHYTQKSLSLSPGK
light: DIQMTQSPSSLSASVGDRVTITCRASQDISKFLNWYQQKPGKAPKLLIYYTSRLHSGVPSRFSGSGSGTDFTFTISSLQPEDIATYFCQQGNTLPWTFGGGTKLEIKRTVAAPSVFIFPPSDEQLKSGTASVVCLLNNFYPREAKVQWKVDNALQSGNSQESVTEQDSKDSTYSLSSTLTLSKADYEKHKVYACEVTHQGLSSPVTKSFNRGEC
Which results are given for B1?
PBMC Cytotoxicity, EC50 (pM), MOLM13 cells, naive T cells from PBMCs [1]: 46.8 pM; TDCC, EC50 (pM), MOLM13 cells, expanded T cells [1]: 10.9 pM; TDCC vs. NKM-1 Cells, EC50 (pM), naive T cells from PBMCs [2]: 20.4 pM; TDCC vs. OCI-AML-2 Cells, EC50 (pM), naive T cells from PBMCs [2]: 2.5 pM; TDCC vs. NALM-1 Cells, EC50 (pM), expanded T cells [3]: 5.7 pM; TDCC vs. OCI-AML-2 Cells, EC50 (pM), expanded T cells [3]: 13.5 pM; TDCC, EC50 (pM), H929 cells [4]: 18.6 pM; TDCC, EC50 (pM), MM1S cells [4]: 18.6 pM; TDCC, EC50 (pM), U226B1 cells [4]: 6.5 pM; TDCC, EC50 (pM), MOLM13 cells, expanded T cells [5]: 0.9 pM; TDCC, EC50 (pM), MOLM13 cells [6]: 11 pM

B2: ABX1520, ILT3xCD3 bispecific antibody, format F13 (bispecific antibody, human IgG1, kappa, L234A L235A)
chain: EVQLLESGGGLVQPGGSLKLSCAASGFTFNTYAMNWVRQAPGKCLEWVARIRSKYNNYATYYADSVKDRFTISRDDSKNTAYLQMNNLKTEDTAVYYCVRHGNFGNSYVSWFAYWGQGTLVTVSSGGGGSGGGGSGGGGSELVVTQEPSLTVSPGGTVTLTCRSSTGAVTTSNYANWVQQKPGQAPRGLIGGTNKRAPGTPARFSGSLLGGKAALTLSGVQPEDEAEYYCALWYSNLWVFGCGTKLTVLGGGGSDKTHTCPPCPAPEAAGGPSVFLFPPKPKDTLMISRTPEVTCVVVDVSHEDPEVKFNWYVDGVEVHNAKTKPREEQYNSTYRVVSVLTVLHQDWLNGKEYKCKVSNKALPAPIEKTISKAKGQPREPQVYTLPPSREEMTKNQVSLSCAVKGFYPSDIAVEWESNGQPENNYKTTPPVLDSDGSFFLVSKLTVDKSRWQQGNVFSCSVMHEALHNHYTQKSLSLSPGK
heavy: EVQLVESGGGLVQPGGSLRLSCAASGFTFSDYGMHWVRQAPGKGLEWVAYIFSGSSTIYYADTVKGRFTISRDNAKNSLYLQMNSLRAEDTAVYYCARADGRGAMDYWGQGTLVTVSSASTKGPSVFPLAPSSKSTSGGTAALGCLVKDYFPEPVTVSWNSGALTSGVHTFPAVLQSSGLYSLSSVVTVPSSSLGTQTYICNVNHKPSNTKVDKKVEPKSCGGGGSEVQLVESGGGLVQPGGSLRLSCAASGFTFSDYGMHWVRQAPGKGLEWVAYIFSGSSTIYYADTVKGRFTISRDNAKNSLYLQMNSLRAEDTAVYYCARADGRGAMDYWGQGTLVTVSSASTKGPSVFPLAPSSKSTSGGTAALGCLVKDYFPEPVTVSWNSGALTSGVHTFPAVLQSSGLYSLSSVVTVPSSSLGTQTYICNVNHKPSNTKVDKKVEPKSCDKTHTCPPCPAPEAAGGPSVFLFPPKPKDTLMISRTPEVTCVVVDVSHEDPEVKFNWYVDGVEVHNAKTKPREEQYNSTYRVVSVLTVLHQDWLNGKEYKCKVSNKALPAPIEKTISKAKGQPREPQVYTLPPSREEMTKNQVSLWCLVKGFYPSDIAVEWESNGQPENNYKTTPPVLDSDGSFFLYSKLTVDKSRWQQGNVFSCSVMHEALHNHYTQKSLSLSPGK
light: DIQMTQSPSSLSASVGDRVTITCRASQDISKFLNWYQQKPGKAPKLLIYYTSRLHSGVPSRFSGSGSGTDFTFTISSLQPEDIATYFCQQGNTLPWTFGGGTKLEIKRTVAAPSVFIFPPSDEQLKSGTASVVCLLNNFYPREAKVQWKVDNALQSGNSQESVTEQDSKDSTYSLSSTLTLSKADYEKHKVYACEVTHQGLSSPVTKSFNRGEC
For B2, which “PBMC Cytotoxicity, EC50 (pM), MOLM13 cells, naive T cells from PBMCs” value [1] is on record?
Its value is 53.7 pM.

What about the “TDCC, EC50 (pM), MOLM13 cells, expanded T cells” value [1] of the same binder?
Its value is 1.4 pM.

And the “TDCC vs. NKM-1 Cells, EC50 (pM), naive T cells from PBMCs” value [2]?
Its value is 2.6 pM.

And the “TDCC vs. OCI-AML-2 Cells, EC50 (pM), naive T cells from PBMCs” value [2]?
The value was 2 pM.

And the “TDCC vs. NALM-1 Cells, EC50 (pM), expanded T cells” value [3]?
The value was 3.6 pM.

And the “TDCC vs. OCI-AML-2 Cells, EC50 (pM), expanded T cells” value [3]?
The value was 23.3 pM.

B3: Hz45G10 anti-ILT3 antibody (antibody, V domains shown)
VH: EVQLVESGGGLVQPGGSLRLSCAASGFTFSDYGMHWVRQAPGKGLEWVAYIFSGSSTIYYADTVKGRFTISRDNAKNSLYLQMNSLRAEDTAVYYCARADGRGAMDYWGQGTLVTVSS
VL: DIQMTQSPSSLSASVGDRVTITCRASQDISKFLNWYQQKPGKAPKLLIYYTSRLHSGVPSRFSGSGSGTDFTFTISSLQPEDIATYFCQQGNTLPWTFGGGTKLEIK
What does the source list for B3?
Kd [7]: 0.13 nM; fold higher affinity than the CD3 scFv (for CD3) [8]: 38 fold

B4: anti-CD3 scFv clone (VH as SEQ ID NO: 149, VL as SEQ ID NO: 150) (scFv)
scFv: EVQLLESGGGLVQPGGSLKLSCAASGFTFNTYAMNWVRQAPGKCLEWVARIRSKYNNYATYYADSVKDRFTISRDDSKNTAYLQMNNLKTEDTAVYYCVRHGNFGNSYVSWFAYWGQGTLVTVSSGGGGSGGGGSGGGGSELVVTQEPSLTVSPGGTVTLTCRSSTGAVTTSNYANWVQQKPGQAPRGLIGGTNKRAPGTPARFSGSLLGGKAALTLSGVQPEDEAEYYCALWYSNLWVFGCGTKLTVL
notes: also called the CD3 scFv
For B4, which Kd [9] is on record?
Its Kd is 6 nM.

B5: 53F10 anti-ILT3 antibody (antibody, V domains shown)
VH: EVQVVESGGGLVKPGGSLKLSCAASGFTFSDYGMHWVRQAPEKGLEWVAYISTGIITVYYADTVKGRFTMSRDNAKNTLFLQMTSLRSEDTAIYYCARADGRGAMDYWGQGTSVIVSS
VL: DIQMTQTTSSLSASLGDRVTISCRASQDISNFLNWYQQKPDGTVTLLIYYTSRLHSGVPSRFSGSGSGTDYSLTISNLEQEDFATYFCQQGNTLPWTFGGGTKLEIK
With B5 as the binder, how does the Kd [7] read?
The Kd was 0.25 nM.

B6: 48A6 anti-ILT3 antibody (antibody, V domains shown)
VH: EVQLVESGGDLMKPGGSLKLSCAASGFTFSSYGMSWVRQTPDKRLEWVATISSGGTYTFYPDSVKGRFTISRDNAKNTLYLQMSSLKSEDTAMYYCARRGWLLHYYAMDYWGQGTSVTVSS
VL: NIVLTQSPASLAVSLGQRATISCRPSESVDSFGNSFMHWFQQKPGQPPKLLIYLSSKLESGVPARFSGSGSRTDFTLTIDPVEADDAATYYCQQHNEDPFTFGSGTKLEIK
How did the Kd [7] turn out when B6 was run?
The Kd was 0.08 nM.

B7: 3A3 anti-ILT3 antibody (antibody, V domains shown)
VH: QVQLKESGPGLVAPSQSLSITCTVSGFSLTSYGVHWVRQPPGKGLEWLGVIWPGGTINYNSALMSRLSISKDNSKSQVFLKLNSLQTDDTAMYYCASDKYDGGWFAYWGQGTLVTVSA
VL: DIVMTQSQKFMSTSVGDRVSITCKASQNVRTAVAWYQQKPGQSPEALIYLASNRHTGVPDRFTGSGSGTDFSLSISNVQSEDLADYFCLQHLNYPLTFGSGTKLEIK
For B7, which Kd [7] is on record?
The Kd was 2 nM.

B8: 16C5 anti-ILT3 antibody (antibody, V domains shown)
VH: EVQLQQSGPELVKPGASVKISCKASGYTFTDYNMDWVKQSHGKSLEWIGYIYPSNGGTGYNQKFKSKATLTVDKSSNTAYMELHSLTSEDSAVYYCARVPYYDYLYYYAMDYWGQGTSVTVSS
VL: QIVLSQSPAILSASPGEKVTMACRASSSVSFMHWYQQKPGSSPQPWIYATSNLASGVPARFSGSGSGTSYSLTISRVEAEDAATYYCQQWSTNPYMYTFGGGTKLEIK
B8 was tested. Which Kd [7] did it give?
The Kd was 0.7 nM.

B9: 12A12 anti-ILT3 antibody (antibody, V domains shown)
VH: EVQLQQSGPELVKPGASVKISCKASGYTFTDYNMDWVKQSHGKSLEWIGYIYPNNGGTGYNQKFNSKATLTVDKSSSTAYMELHSLTSEDSAVYYCASSPYYDYVGSYAMDYWGQGTSVTVSS
VL: QIVLTQSPAIMSASLGERVTMTCTASSSVSSSYLHWYQQKPGSSPKLWIYSTSNLASGVPARFSGSGSGTSYSLTISSMEAEDAATYYCHQYHRSPRTFGGGTKLEIK
For B9, which Kd [7] is on record?
The Kd was 8.5 nM.
